The results in this text go back to IntAct's records for PubMed 31515488.

B1: DNA replication complex GINS protein PSF2 (Homo sapiens), Q9Y248 (parent)
chain: MDAAEVEFLAEKELVTIIPNFSLDKIYLIGGDLGPFNPGLPVEVPLWLAINLKQRQKCRLLPPEWMDVEKLEKMRDHERKEETFTPMPSPYYMELTKLLLNHASDNIPKADEIRTLVKDMWDTRIAKLRVSADSFVRQQEAHAKLDNLTLMEINTSGTFLTQALNHMYKLRTNLQPLESTQSQDF
B2: Cyclic AMP-dependent transcription factor ATF-2 (Homo sapiens), P15336 (parent)
chain: MKFKLHVNSARQYKDLWNMSDDKPFLCTAPGCGQRFTNEDHLAVHKHKHEMTLKFGPARNDSVIVADQTPTPTRFLKNCEEVGLFNELASPFENEFKKASEDDIKKMPLDLSPLATPIIRSKIEEPSVVETTHQDSPLPHPESTTSDEKEVPLAQTAQPTSAIVRPASLQVPNVLLTSSDSSVIIQQAVPSPTSSTVITQAPSSNRPIVPVPGPFPLLLHLPNGQTMPVAIPASITSSNVHVPAAVPLVRPVTMVPSVPGIPGPSSPQPVQSEAKMRLKAALTQQHPPVTNGDTVKGHGSGLVRTQSEESRPQSLQQPATSTTETPASPAHTTPQTQSTSGRRRRAANEDPDEKRRKFLERNRAAASRCRQKRKVWVQSLEKKAEDLSSLNGQLQSEVTLLRNEVAQLKQLLLAHKDCPVTAMQKKSGYHTADKDDSSEDISVPSSPHTEAIQHSSVSTSNGVSSTSKAEAVATSVLTQMADQSTEPALSQIVMAPSSQSQPSGS
B3: AP-4 complex subunit beta-1 (Homo sapiens), Q9Y6B7 (parent)
chain: MPYLGSEDVVKELKKALCNPHIQADRLRYRNVIQRVIRYMTQGLDMSGVFMEMVKASATVDIVQKKLVYLYMCTYAPLKPDLALLAINTLCKDCSDPNPMVRGLALRSMCSLRMPGVQEYIQQPILNGLRDKASYVRRVAVLGCAKMHNLHGDSEVDGALVNELYSLLRDQDPIVVVNCLRSLEEILKQEGGVVINKPIAHHLLNRMSKLDQWGQAEVLNFLLRYQPRSEEELFDILNLLDSFLKSSSPGVVMGATKLFLILAKMFPHVQTDVLVRVKGPLLAACSSESRELCFVALCHVRQILHSLPGHFSSHYKKFFCSYSEPHYIKLQKVEVLCELVNDENVQQVLEELRGYCTDVSADFAQAAIFAIGGIARTYTDQCVQILTELLGLRQEHITTVVVQTFRDLVWLCPQCTEAVCQALPGCEENIQDSEGKQALIWLLGVHGERIPNAPYVLEDFVENVKSETFPAVKMELLTALLRLFLSRPAECQDMLGRLLYYCIEEEKDMAVRDRGLFYYRLLLVGIDEVKRILCSPKSDPTLGLLEDPAERPVNSWASDFNTLVPVYGKAHWATISKCQGAERCDPELPKTSSFAASGPLIPEENKERVQELPDSGALMLVPNRQLTADYFEKTWLSLKVAHQQVLPWRGEFHPDTLQMALQVVNIQTIAMSRAGSRPWKAYLSAQDDTGCLFLTELLLEPGNSEMQISVKQNEARTETLNSFISVLETVIGTIEEIKS
partner: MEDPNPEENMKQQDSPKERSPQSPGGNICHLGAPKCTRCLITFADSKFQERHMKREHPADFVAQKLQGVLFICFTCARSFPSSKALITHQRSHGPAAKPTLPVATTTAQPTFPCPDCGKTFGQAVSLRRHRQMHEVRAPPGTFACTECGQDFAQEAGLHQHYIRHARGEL
B4: Cytochrome b-245 chaperone 1 (Homo sapiens), Q9BQA9 (parent)
chain: MYLQVETRTSSRLHLKRAPGIRSWSLLVGILSIGLAAAYYSGDSLGWKLFYVTGCLFVAVQNLEDWEEAIFDKSTGKVVLKTFSLYKKLLTLFRAGHDQVVVLLHDVRDVSVEEEKVRYFGKGYMVVLRLATGFSHPLTQSAVMGHRSDVEAIAKLITSFLELHCLESPTELSQSSDSEAGDPASQS
B5: AKT-interacting protein (Homo sapiens), Q9H8T0 (parent)
chain: MNPFWSMSTSSVRKRSEGEEKTLTGDVKTSPPRTAPKKQLPSIPKNALPITKPTSPAPAAQSTNGTHASYGPFYLEYSLLAEFTLVVKQKLPGVYVQPSYRSALMWFGVIFIRHGLYQDGVFKFTVYIPDNYPDGDCPRLVFDIPVFHPLVDPTSGELDVKRAFAKWRRNHNHIWQVLMYARRVFYKIDTASPLNPEAAVLYEKDIQLFKSKVVDSVKVCTARLFDQPKIEDPYAISFSPWNPSVHDEAREKMLTQKKPEEQHNKSVHVAGLSWVKPGSVQPFSKEEKTVAT
partner: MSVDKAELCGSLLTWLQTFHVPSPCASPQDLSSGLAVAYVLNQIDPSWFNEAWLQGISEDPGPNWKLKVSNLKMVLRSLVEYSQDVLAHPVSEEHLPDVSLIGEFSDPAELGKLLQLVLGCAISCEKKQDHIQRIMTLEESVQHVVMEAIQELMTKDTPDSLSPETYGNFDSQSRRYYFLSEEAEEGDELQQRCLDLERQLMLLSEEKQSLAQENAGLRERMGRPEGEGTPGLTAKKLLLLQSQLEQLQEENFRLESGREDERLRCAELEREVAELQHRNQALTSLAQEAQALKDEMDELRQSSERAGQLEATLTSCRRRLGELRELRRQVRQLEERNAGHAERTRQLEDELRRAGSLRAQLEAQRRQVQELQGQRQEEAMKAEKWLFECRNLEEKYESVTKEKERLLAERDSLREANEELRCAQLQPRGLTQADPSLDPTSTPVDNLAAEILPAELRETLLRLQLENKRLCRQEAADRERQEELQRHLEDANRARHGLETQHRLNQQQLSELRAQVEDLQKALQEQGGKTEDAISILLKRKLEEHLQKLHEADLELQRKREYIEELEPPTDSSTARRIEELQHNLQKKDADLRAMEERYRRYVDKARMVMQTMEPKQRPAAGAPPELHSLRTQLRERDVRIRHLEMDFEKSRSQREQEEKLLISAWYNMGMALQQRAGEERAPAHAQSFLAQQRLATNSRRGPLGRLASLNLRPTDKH
B6: 2'-5'-oligoadenylate synthase 2 (Homo sapiens), P29728 (parent)
chain: MGNGESQLSSVPAQKLGWFIQEYLKPYEECQTLIDEMVNTICDVLQEPEQFPLVQGVAIGGSYGRKTVLRGNSDGTLVLFFSDLKQFQDQKRSQRDILDKTGDKLKFCLFTKWLKNNFEIQKSLDGFTIQVFTKNQRISFEVLAAFNALSLNDNPSPWIYRELKRSLDKTNASPGEFAVCFTELQQKFFDNRPGKLKDLILLIKHWHQQCQKKIKDLPSLSPYALELLTVYAWEQGCRKDNFDIAEGVRTVLELIKCQEKLCIYWMVNYNFEDETIRNILLHQLQSARPVILDPVDPTNNVSGDKICWQWLKKEAQTWLTSPNLDNELPAPSWNVLPAPLFTTPGHLLDKFIKEFLQPNKCFLEQIDSAVNIIRTFLKENCFRQSTAKIQIVRGGSTAKGTALKTGSDADLVVFHNSLKSYTSQKNERHKIVKEIHEQLKAFWREKEEELEVSFEPPKWKAPRVLSFSLKSKVLNESVSFDVLPAFNALGQLSSGSTPSPEVYAGLIDLYKSSDLPGGEFSTCFTVLQRNFIRSRPTKLKDLIRLVKHWYKECERKLKPKGSLPPKYALELLTIYAWEQGSGVPDFDTAEGFRTVLELVTQYQQLCIFWKVNYNFEDETVRKFLLSQLQKTRPVILDPAEPTGDVGGGDRWCWHLLAKEAKEWLSSPCFKDGTGNPIPPWKVPTMQTPGSCGARIHPIVNEMFSSRSHRILNNNSKRNF
B7: Notch homolog 2 N-terminal-like protein A (Homo sapiens), Q7Z3S9 (parent)
chain: MCVTYHNGTGYCKCPEGFLGEYCQHRDPCEKNRCQNGGTCVAQAMLGKATCRCASGFTGEDCQYSTSHPCFVSRPCLNGGTCHMLSRDTYECTCQVGFTGKECQWTDACLSHPCANGSTCTTVANQFSCKCLTGFTGQKCETDVNECDIPGHCQHGGTCLNLPGSYQCQCLQGFTGQYCDSLYVPCAPSPCVNGGTCRQTGDFTFECNCLPETVRRGTELWERDREVWNGKEHDEN
partner: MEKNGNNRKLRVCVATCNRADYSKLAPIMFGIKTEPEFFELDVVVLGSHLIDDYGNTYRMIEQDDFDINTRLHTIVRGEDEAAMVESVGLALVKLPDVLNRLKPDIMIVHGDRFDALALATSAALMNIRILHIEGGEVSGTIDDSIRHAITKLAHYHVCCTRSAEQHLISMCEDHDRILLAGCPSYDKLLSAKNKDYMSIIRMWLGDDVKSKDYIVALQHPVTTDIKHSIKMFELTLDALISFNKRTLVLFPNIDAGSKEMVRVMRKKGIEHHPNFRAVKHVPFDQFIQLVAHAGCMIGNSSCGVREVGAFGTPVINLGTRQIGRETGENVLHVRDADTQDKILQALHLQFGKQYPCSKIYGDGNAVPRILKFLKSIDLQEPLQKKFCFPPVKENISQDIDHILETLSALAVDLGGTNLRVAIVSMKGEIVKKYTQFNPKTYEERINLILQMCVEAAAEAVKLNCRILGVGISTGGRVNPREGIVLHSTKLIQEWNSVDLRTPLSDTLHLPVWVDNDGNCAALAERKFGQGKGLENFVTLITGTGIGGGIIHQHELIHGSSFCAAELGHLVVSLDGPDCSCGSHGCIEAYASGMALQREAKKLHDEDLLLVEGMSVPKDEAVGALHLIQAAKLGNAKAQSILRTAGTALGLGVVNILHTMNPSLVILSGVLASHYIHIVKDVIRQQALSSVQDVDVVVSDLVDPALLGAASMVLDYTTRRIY

The variants in the first test derive from B1. The following applies: with sld5_human GINS4, Q9BRT9.
Sequence of sld5_human GINS4, Q9BRT9 (Q9BRT9 whole entry): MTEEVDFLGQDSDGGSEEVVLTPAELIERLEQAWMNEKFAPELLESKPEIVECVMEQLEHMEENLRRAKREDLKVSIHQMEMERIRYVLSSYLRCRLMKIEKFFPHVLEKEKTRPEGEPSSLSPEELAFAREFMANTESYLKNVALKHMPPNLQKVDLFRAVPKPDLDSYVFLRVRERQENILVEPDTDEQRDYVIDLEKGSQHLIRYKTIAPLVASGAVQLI
Regarding L150S, the “effect of a mutation on the interaction” value is “with no effect”. In the case of T172K, the “effect of a mutation on the interaction” value is reported as “with no effect”.

I26T: the “effect of a mutation on the interaction” value is on record as “with no effect”.

With D24G, the “effect of a mutation on the interaction” value is on record as “with no effect”.

Variants of B2 are the subject of a further test. The following applies: with jun_human JUN.
For the variant S456L, the “effect of a mutation on the interaction” value is recorded as “with no effect”.

The variants in the next test derive from B3. The following applies: with zn576_human ZNF576, Q9H609.
Consider L480S, for which the “effect of a mutation on the interaction” value is recorded as “with no effect”.

Variants of B4 are the subject of another test. The following applies: with BCL2L13, Q9BXK5.
Sequence of BCL2L13, Q9BXK5 (Q9BXK5 whole entry): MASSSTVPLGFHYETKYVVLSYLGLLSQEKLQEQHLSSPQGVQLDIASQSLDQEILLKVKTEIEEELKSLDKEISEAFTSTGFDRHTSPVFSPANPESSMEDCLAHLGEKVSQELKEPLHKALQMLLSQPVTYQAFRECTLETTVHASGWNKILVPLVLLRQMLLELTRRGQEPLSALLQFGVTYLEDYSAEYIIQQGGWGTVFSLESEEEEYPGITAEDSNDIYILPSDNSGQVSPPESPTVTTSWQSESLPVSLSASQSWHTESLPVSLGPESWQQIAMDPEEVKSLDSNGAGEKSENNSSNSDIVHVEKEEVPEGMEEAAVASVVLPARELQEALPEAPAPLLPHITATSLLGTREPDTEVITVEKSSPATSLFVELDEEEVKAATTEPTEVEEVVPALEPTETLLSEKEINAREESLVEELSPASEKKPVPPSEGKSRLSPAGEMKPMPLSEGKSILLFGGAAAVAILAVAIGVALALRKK
R129W: the “effect of a mutation on the interaction” value is reported as “with no effect”.

Variants of B5 are the subject of a further test. As to conditions: with hook2_human HOOK2, Q96ED9.
Take R33Q: the “effect of a mutation on the interaction” value was “with no effect”.

Variants of B6 are the subject of a further test. The following applies: with clk3_human CLK3, P49761.
Sequence of clk3_human CLK3, P49761 (P49761 whole entry, looked up): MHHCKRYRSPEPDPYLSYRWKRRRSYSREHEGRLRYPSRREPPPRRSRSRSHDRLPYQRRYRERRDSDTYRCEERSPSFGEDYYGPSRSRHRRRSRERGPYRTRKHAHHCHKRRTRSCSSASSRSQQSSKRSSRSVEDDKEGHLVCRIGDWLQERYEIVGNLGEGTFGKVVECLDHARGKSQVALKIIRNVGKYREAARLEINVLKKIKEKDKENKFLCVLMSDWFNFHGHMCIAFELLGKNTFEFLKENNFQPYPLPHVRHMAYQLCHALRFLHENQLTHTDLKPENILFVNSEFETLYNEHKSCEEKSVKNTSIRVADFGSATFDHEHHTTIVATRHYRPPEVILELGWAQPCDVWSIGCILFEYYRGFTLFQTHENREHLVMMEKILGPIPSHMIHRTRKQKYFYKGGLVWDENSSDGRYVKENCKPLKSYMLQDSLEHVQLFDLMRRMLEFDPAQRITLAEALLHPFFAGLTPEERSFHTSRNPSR
Turning to R535Q, the “effect of a mutation on the interaction” value is “disrupting interaction strength”. Same read-out and setting: the entry for V620M is “with no effect”.

The variants in another test derive from B7. As to conditions: with glcne_human GNE.
For R74Q, the “effect of a mutation on the interaction” value was “with no effect”.
